From article PMC4267786

Target: native apolipoprotein D (apoD) from human plasma (human) (UniProt P05090)
Experiment: ELISA; detergent-free dual-specific ELISA with purified components; capture anti-apoD D544, detection anti-apoB LDL20-biotin; LDL 333 ng/ml (or VLDL 1000 ng/ml, also with detergent) alone or with apoD 100 ng/ml, recombinant apoD 100 ng/ml, HDL2 or HDL3 1000 ng/ml; read as absorbance relative to LDL alone

Chain of UniProt P05090 (P05090 21-189): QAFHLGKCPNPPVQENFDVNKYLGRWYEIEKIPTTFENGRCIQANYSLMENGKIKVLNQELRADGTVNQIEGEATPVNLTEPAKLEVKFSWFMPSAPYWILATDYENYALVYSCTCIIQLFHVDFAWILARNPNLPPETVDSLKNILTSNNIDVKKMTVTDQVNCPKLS

purified low density lipoprotein (LDL) (complex)
fold enhancement of LDL binding against LDL alone: 6 fold
